Measurements reported in patent US20240139289A1 (EXTEND BIOSCIENCES, published 2024).
Each block holds one binder with its values, some of them ahead of it. Ends that are not written are not given here.

How the values were obtained:
[1] = target: T1, human parathyroid hormone receptor 1 (PTHR1) (human, UniProt Q03431 27-593); assay: cell-based or functional assay
T1 sequence (looked up): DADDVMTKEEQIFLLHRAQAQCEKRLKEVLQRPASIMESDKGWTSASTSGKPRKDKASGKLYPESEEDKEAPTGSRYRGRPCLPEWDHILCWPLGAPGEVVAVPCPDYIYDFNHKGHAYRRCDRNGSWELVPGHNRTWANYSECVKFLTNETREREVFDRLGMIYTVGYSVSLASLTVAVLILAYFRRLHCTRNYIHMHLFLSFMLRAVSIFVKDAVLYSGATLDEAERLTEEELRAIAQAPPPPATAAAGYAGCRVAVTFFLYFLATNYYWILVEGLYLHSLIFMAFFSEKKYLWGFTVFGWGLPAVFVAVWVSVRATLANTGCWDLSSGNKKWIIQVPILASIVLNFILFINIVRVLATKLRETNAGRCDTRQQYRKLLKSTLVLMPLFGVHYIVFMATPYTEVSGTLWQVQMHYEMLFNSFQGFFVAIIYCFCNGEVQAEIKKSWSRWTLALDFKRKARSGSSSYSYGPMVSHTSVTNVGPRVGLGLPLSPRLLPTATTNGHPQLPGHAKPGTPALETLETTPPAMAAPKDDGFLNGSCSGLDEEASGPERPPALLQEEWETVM

[2] = target: T1, human parathyroid hormone receptor 1 …; assay: cell-based or functional assay; remark: listed apart in the source
[3] = target: T2, Vitamin D binding protein (DBP) (Homo sapiens (Human)) (UniProt P02774); assay: BLI (Octet Red96), biotinylated EXT607 on streptavidin tips, DBP 0-75 µM, steady-state fit
T2 sequence: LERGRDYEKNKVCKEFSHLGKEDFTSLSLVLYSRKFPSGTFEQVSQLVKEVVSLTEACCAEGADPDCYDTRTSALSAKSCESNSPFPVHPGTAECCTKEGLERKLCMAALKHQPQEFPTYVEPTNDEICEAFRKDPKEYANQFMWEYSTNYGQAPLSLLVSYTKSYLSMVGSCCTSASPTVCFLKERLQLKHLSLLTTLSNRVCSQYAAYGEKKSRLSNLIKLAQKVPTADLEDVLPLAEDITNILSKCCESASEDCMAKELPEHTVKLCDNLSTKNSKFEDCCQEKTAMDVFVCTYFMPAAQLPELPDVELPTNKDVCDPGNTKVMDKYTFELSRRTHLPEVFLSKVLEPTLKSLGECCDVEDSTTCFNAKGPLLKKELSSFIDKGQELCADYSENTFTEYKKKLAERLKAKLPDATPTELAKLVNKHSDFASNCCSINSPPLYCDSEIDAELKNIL

[4] = target: T2, Vitamin D binding protein (DBP) (Homo sapiens (Human)); assay: BLI (Octet Red96), biotinylated EXT607 on streptavidin tips, DBP 0-75 µM
[5] = target: T2, Vitamin D binding protein (DBP) (Homo sapiens (Human)); assay: BLI (Octet Red96), biotinylated EXT608 on streptavidin tips, DBP 0-75 µM
[6] = target: T2, Vitamin D binding protein (DBP) (Homo sapiens (Human)); assay: BLI (Octet Red96), biotinylated EXT608 on streptavidin tips, DBP 0-75 µM, steady-state fit

B2: EXT617 (PTH-PEG20 kDa-VitD) (peptide)
peptide: SVSEIQLMHNLGKHLNSMERVEWLRKKLQDVHNFC
modifications: C-terminal Cys thiol conjugated through maleimide-PEG ~20,000 Da (~455 units) to VitD-NH2 (25-hydroxy vitamin D, C3 position); C-terminal amide
PTHR1 EC50, calcium mobilization assay in agonist mode [1]: 221 nM | fold increase of PTHR1 EC50 against the conjugates with shorter PEG linkers [2]: ~7 fold

B3: EXT608 (PTH(1-34)-Cys-PEG36-25-hydroxy-vitamin D conjugate, C-terminal amide, R = NH2) (peptide)
peptide: SVSEIQLMHNLGKHLNSMERVEWLRKKLQDVHNFC
modifications: C-terminal Cys (position 35) carries succinimido-propionylamino-PEG36-propionyl-aminopropyl-25-hydroxy-Vitamin D on its thiol; C-terminal amide (-NH2)
PTHR1 EC50, calcium mobilization assay in agonist mode [1]: 28.6 nM | EC50, cell-based calcium flux assay in agonist mode (percent efficacy) [2]: 22 nM | maximum response (BLI shift) [5]: 1.79 nm | Kd [6]: 5200 nM

B4: EXT616 (PTH-PEG10 kDa-VitD) (peptide)
peptide: SVSEIQLMHNLGKHLNSMERVEWLRKKLQDVHNFC
modifications: C-terminal Cys thiol conjugated through maleimide-PEG ~10,000 Da (~227 units) to VitD-NH2 (25-hydroxy vitamin D, C3 position); C-terminal amide
PTHR1 EC50, calcium mobilization assay in agonist mode [1]: 33.6 nM

Binder: SVSEIQLMHNLGKHLNSMERVEWLRKKLQDVHNFC-NH2 (not fully specified (residue 35); also: acetate salt) [EXT606 (PTH-cys-PEG24-VitD)]
PTHR1 EC50, calcium mobilization assay in agonist mode [1]: 30.5 nM

Continued, values first:

PTHR1 EC50, calcium mobilization assay in agonist mode [1]: 32.3 nM
Binder: SVSEIQLMHNLGKHLNSMERVEWLRKKLQDVHNFC-NH2 (not fully specified (residue 35); also: acetate salt) [EXT611 (PTH-cys-PEG12-VitD)]

PTHR1 EC50, calcium mobilization assay in agonist mode [1]: 29.9 nM
Binder: SVSEIQLMHNLGKHLNSMERVEWLRKKLQDVHNFC-NH2 (not fully specified (residue 35); also: acetate salt) [EXT615 (PTH-PEG5 kDa-VitD)]

EC50, cell-based calcium flux assay in agonist mode (percent efficacy) [2]: 21 nM | Kd [3]: 8100 nM | maximum response (BLI shift) [4]: 1.79 nm
B1: EXT607 (PTH(1-34)-Cys-PEG36-25-hydroxy-vitamin D conjugate, C-terminal acid, R = OH) (peptide)
peptide: SVSEIQLMHNLGKHLNSMERVEWLRKKLQDVHNFC
modifications: C-terminal Cys (position 35) carries succinimido-propionylamino-PEG36-propionyl-aminopropyl-25-hydroxy-Vitamin D on its thiol; C-terminus is free acid (-OH)
